Reference: paper PMC6086316, “Interactions between the Aggregatibacter actinomycetemcomitans secretin HofQ and host cytokines indicate a link between natural competence and interleukin-8 uptake” (Virulence, 2018)
Numbering of substitutions follows the chain as printed. Names and notes keep the numbering of the source.

B1: emHofQ_L1 (H136A, F137A, K139A) (domain or fragment)
chain: QNPVFSIRLKQAPLVPTLQQLALAHNTNLIIDDELQGTVSLQLENVDLDQLFRSVAKIKQLDLWQENGIYYFTKGDTNTKFAGKMEEPFPLSLPMAEEPAQLNTATIKLAAAAASEVMKSLTGGSGSLLSPNGSITFDDRSNLLLIQDEPRSVRNIKKLIKELDKPIEQ
notes: they already carry the substitutions; Secretin HofQ of Aggregatibacter actinomycetemcomitans, extramembranous domain, residues 27-195; The printed gene begins with ATG (Met, in the NdeI site) and ends with CTC GAG (Leu-Glu, XhoI site) before the His tag of pET36b; also called emHofQ mutant L1; source: E. coli BL21 CodonPlus (DE3) RIL, induced overnight at 16°C, purified (HisTrap, size-exclusion …)
B2: emHofQ_L1L2 (H136A, F137A, K139A, D165A, R166A) (domain or fragment)
chain: B1 chain with D139A, R140A
notes: they already carry the substitutions; Secretin HofQ of Aggregatibacter actinomycetemcomitans, extramembranous domain, residues 27-195; The printed gene begins with ATG (Met, in the NdeI site) and ends with CTC GAG (Leu-Glu, XhoI site) before the His tag of pET36b; also called emHofQ mutant L1L2; source: E. coli BL21 CodonPlus (DE3) RIL, induced overnight at 16°C, purified (HisTrap, size-exclusion …)
B3: emHofQ_L2 (D165A, R166A) (domain or fragment)
chain: B1 chain with A110H, A111F, A113K, D139A, R140A
notes: they already carry the substitutions; Secretin HofQ of Aggregatibacter actinomycetemcomitans, extramembranous domain, residues 27-195; The printed gene begins with ATG (Met, in the NdeI site) and ends with CTC GAG (Leu-Glu, XhoI site) before the His tag of pET36b; also called emHofQ mutant L2; source: E. coli BL21 CodonPlus (DE3) RIL, induced overnight at 16°C, purified (HisTrap, size-exclusion …)

Molecular target: T1, human mature interleukin-1β (IL-1β, amino acids 117-269) (human)
T1 construct: Human mature IL-1β, amino acids 117-269; Expressed from pET-28bTEV; source: E. coli BL21 CodonPlus (DE3) RIL, purified (HisTrap, TEV cleavage, size-exclusion chromatography); not shown: His6, N-terminal, cleaved
T1 sequence (chain, as listed by the source): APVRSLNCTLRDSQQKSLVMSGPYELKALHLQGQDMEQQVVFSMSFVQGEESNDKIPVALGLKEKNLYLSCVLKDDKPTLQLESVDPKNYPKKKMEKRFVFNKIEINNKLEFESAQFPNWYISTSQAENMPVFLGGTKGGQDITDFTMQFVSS
Experiment: time-resolved fluorometric immunoassay (TRFIA); 60 pmol IL-8 or IL-1β coated on wells; emHofQ wild type and mutants 5 nM-2 μM, 4°C overnight; Eu-N1 anti-6xHis antibody; apparent Kd
Conditions: both partners purified

| Binder | Kd |
| --- | --- |
| B1 | 450 ± 160 nM |
| B2 | 440 ± 70 nM |
| B3 | 330 ± 70 nM |
